Reference: the supplement of paper PMC10126150
± gives the standard deviation of the averaged measurements.

Test system: ATP
Assay: switch fluorescence ratio, 500 uM ATP over buffer (Cy3 cluster intensity, sum of 5 cycles each) (fold (ratio)); higher = stronger signal-on switching upon ATP binding; sequences stand for … in TCGTCGGCAGCGTCAGATGTGTATAAGAGACAGTTTTTTTTTTTTTTTTTTTTTTTTT…TC
Details: aptamer strand: ATP DNA aptamer (quencher-CACCTGGGGGAGTATTGCGGAGGAAGG + anchor), 100 nM annealed; ATP concentration: 500 uM
Summary of the method: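 Values give the fluorescence ratio for each switch-domain sequence, averaged from per-cluster ratios of summed target-cycle to summed buffer-cycle Cy3 intensity. The Cy3-labelled switching-strand clusters sat on a modified Illumina MiSeq flow-cell, were annealed to 100 nM quencher-labelled ATP aptamer, and were imaged in selection buffer, then after 15 min with 500 uM ATP at 22 °C. Five cycles ran with NaOH stripping and re-annealing between them, and clusters outside 100-1000 RFU were excluded.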
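Also: ATP exposure 15 min at 22 °C before imaging.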

Row | Sequence | switch fluorescence ratio
1 | GCGGCCCTGG | 1.008 ± 0.0064
2 | AAAGGATGAT | 0.9978 ± 0.0031
3 | TTTCGGGCAT | 1.19 ± 0.31
4 | TGTTTATTGA | 0.989 ± 0.013
5 | CGTTACGTAG | 1.05 ± 0.018
6 | ACCGTGCTTA | 1.01 ± 0.032
7 | GCTCGTACGT | 1.01 ± 0.031
8 | CTAAGCCGTT | 0.971 ± 0.011
9 | GAAAGTAAGC | 0.993 ± 0.012
10 | TTTGCGCCGT | 1.02 ± 0.058
11 | CAGTCGGAGA | 1.02 ± 0.037
12 | ATATAGGCTA | 0.995 ± 0.011
13 | ATAGGGTATA | 0.981 ± 0.055
14 | TACTGACGAA | 1.27 ± 0.11
15 | TGCGCAAAAG | 1.01 ± 0.012
16 | GGGGATCAGC | 0.9912 ± 0.0036
17 | GGATTTTATA | 1.01 ± 0.024
18 | CATTTCAGGT | 1.03 ± 0.069
19 | ATTTTAGAAA | 1.01 ± 0.015
20 | AGAGGTTATG | 0.986 ± 0.041
21 | GGAAAAATCG | 1.013 ± 0.0051
22 | CAGGTAGGTA | 0.977 ± 0.014
23 | ACTATTATTT | 0.9887 ± 0.0022

Row | Sequence | switch fluorescence ratio
24 | AGGGTTTGTG | 1.11 ± 0.037
25 | TGGGGACGGG | 1 ± 0.046
26 | TCTTTCACGC | 1.09 ± 0.085
27 | ATAGGCGCGG | 1.01 ± 0.02
28 | CGATACGATG | 0.995 ± 0.011
29 | ATAAGATTGT | 0.963 ± 0.058
30 | CCGATTTTTA | 0.977 ± 0.053
31 | TTGGCTACAA | 0.985 ± 0.037
32 | GGGGTGAGAG | 0.993 ± 0.026
33 | TTAATGGCGG | 0.995 ± 0.02
34 | TAAGTGCTGG | 1.01 ± 0.016
35 | GTGAGAGCGG | 0.963 ± 0.033
36 | GTAGTAAGAT | 1.07 ± 0.064
37 | ACTCTGGGC | 1.17 ± 0.21
38 | AGTTCCTTAG | 1.05 ± 0.043
39 | TTAAGAGAGG | 1.01 ± 0.013
40 | CAGGGGGTAT | 0.997 ± 0.026
41 | AGACGGTCAA | 1.08 ± 0.032
42 | CGTCCTTGTT | 0.991 ± 0.029
43 | TGGAAGGGGC | 1.04 ± 0.035
44 | TATGTGGGTC | 1.02 ± 0.035
45 | GCCCGGGCAT | 0.986 ± 0.013
46 | ACCTGGGTAT | 1.01 ± 0.049

Row | Sequence | switch fluorescence ratio
47 | TGTTTTTTGT | 0.992 ± 0.034
48 | CGGGTCTATT | 0.9649 ± 0.001
49 | TTGTGGCTGG | 0.96 ± 0.035
50 | TATTAATCGG | 0.97 ± 0.056
51 | TGGGGAAAAC | 1.02 ± 0.051
52 | TTTGAGGTGT | 1.03 ± 0.012
53 | TGTAAAGGGG | 1.01 ± 0.029
54 | AAATTATTCG | 1.03 ± 0.045
55 | TTGTTTTGAG | 0.994 ± 0.013
56 | GAATGCCTGT | 1.033 ± 0.0065
57 | AAGGTATGTT | 0.981 ± 0.021
58 | ACCTATCCGG | 1.03 ± 0.017
59 | GCACCCGTAC | 1.52 ± 0.037
60 | ATTGAGAGGG | 1.07 ± 0.075
61 | AGCAGGGGGT | 1.05 ± 0.044
62 | TTACTTAAAA | 0.988 ± 0.04
63 | GATAGCGGGA | 0.97 ± 0.058
64 | ACAATGTCT | 0.996 ± 0.014
65 | GGGATTCGGA | 0.9499 ± 0.0088
66 | TAGAGGAGGC | 0.996 ± 0.017
67 | CTCAGGGCCG | 1.05 ± 0.11
68 | TAGCGCCCCG | 0.987 ± 0.016
69 | GGTTGTCATG | 0.967 ± 0.032

Row | Sequence | switch fluorescence ratio
70 | ATCTAGTACC | 0.999 ± 0.046
71 | TCACGTGGTA | 1.02 ± 0.021
72 | CTGTGTGTTA | 0.9816 ± 0.0036
73 | TTTTCCGCGC | 2.08 ± 0.47
74 | CTGGTATTTG | 1.05 ± 0.041
75 | GTTTCGTAAT | 1.084 ± 0.0038
76 | GTTTTTTTCG | 0.9829 ± 0.007
77 | GAGGGAAGTA | 1.06 ± 0.17
78 | TAACCGCTTT | 1.55 ± 0.7
79 | GATCGGATGT | 0.981 ± 0.011
80 | TTTACTGGGG | 1.01 ± 0.023
81 | GGACTTTAAT | 1 ± 0.017
82 | TGGGTTGGCA | 0.987 ± 0.029
83 | AGATATTTAT | 0.987 ± 0.014
84 | AGGTGTTGGA | 0.985 ± 0.032
85 | GTTCGAACGG | 0.9963 ± 0.006
86 | TTTTCCATTG | 1.01 ± 0.021
87 | CGTTCCTCGG | 1.77 ± 0.057
88 | TAGGAATACG | 1.24 ± 0.036
89 | CAGCTGTGGT | 0.985 ± 0.036
90 | TCAAGCACTT | 1.25 ± 0.028
91 | CACGGGAACA | 1.082 ± 0.0053
92 | GGGTTAGTTT | 0.992 ± 0.049

Row | Sequence | switch fluorescence ratio
93 | TATGTTATTA | 0.984 ± 0.039
94 | ATTTTTGATT | 0.984 ± 0.018
95 | GTTTTAGCTG | 0.986 ± 0.059
96 | TTGTGGAGAA | 1.04 ± 0.072
97 | GTTGGAAGAG | 0.957 ± 0.051
98 | GAATTTGAGT | 0.9741 ± 0.0089
99 | GGCCCAGGAG | 1.01 ± 0.017
100 | AGGGCAAAAT | 1.02 ± 0.035
101 | GATTGTGCCG | 1.03 ± 0.061
102 | AATTGGAAAA | 0.987 ± 0.019
103 | AGTATGTGGA | 0.9729 ± 0.0071
104 | GTTTTTGTTT | 1 ± 0.033
105 | CCAGGATTGG | 1 ± 0.006
106 | AGAGCTGGGT | 1.02 ± 0.02
107 | GACTGTCGGC | 1.02 ± 0.024
108 | GGGTAGAATG | 1.02 ± 0.03
109 | TTTTTGGAGA | 0.994 ± 0.025
110 | AACGGTGCGG | 1.01 ± 0.026
111 | GGAGGGGGCA | 0.9654 ± 0.0011
112 | ACTTTGACAT | 1.072 ± 0.0092
113 | CCACTATTAG | 1.03 ± 0.021
114 | CAAATGGAAG | 0.998 ± 0.028
115 | GATTAGGTGA | 1.06 ± 0.014

Row | Sequence | switch fluorescence ratio
116 | TCGTAACAGG | 1.01 ± 0.034
117 | TGTGGCACAT | 1.005 ± 0.0065
118 | GATATATATC | 0.9903 ± 0.0054
119 | GGGCGGGGCG | 0.938 ± 0.063
120 | AACCCGTTTC | 1.09 ± 0.07
121 | CAGCAATTAT | 2.95 ± 0.28
122 | TACATCATCG | 1.14 ± 0.016
123 | GGGTCTTCGC | 0.991 ± 0.024
124 | GGATGGTAGT | 1.01 ± 0.071
125 | TTCCTGTCGT | 1.004 ± 0.0021
126 | ATGGCTTAGC | 0.983 ± 0.015
127 | ATGTCTTGAT | 0.963 ± 0.014
128 | TGTGGCGATT | 1.02 ± 0.016
129 | CCTCAGGGGC | 2.39 ± 0.57
130 | TTGGACATGC | 1.06 ± 0.14
131 | TTTTGAGTCG | 1.01 ± 0.033
132 | GAGTACAAAG | 1.02 ± 0.0041
133 | CGCTGTCACG | 1.0556 ± 0.00068
134 | AGGGGATAGC | 1.01 ± 0.017
135 | AAAGTAGGTT | 0.991 ± 0.023
136 | TTAATCTCGG | 0.9954 ± 0.0016
137 | TGAAGGGCGT | 0.9927 ± 0.0081
138 | ATATCGAGGC | 0.9803 ± 0.0089

Row | Sequence | switch fluorescence ratio
139 | ATTCAGGTTG | 1.02 ± 0.016
140 | GAGATAGTAG | 1 ± 0.015
141 | CATTGAATCT | 1.02 ± 0.02
142 | TTTCAGGCTT | 1.14 ± 0.13
143 | GGAATGTAGG | 0.99 ± 0.027
144 | TATAGTCTTC | 0.959 ± 0.027
145 | AAAGAGGGG | 0.98 ± 0.029
146 | CTGTGGCTAT | 1.01 ± 0.023
147 | CAATTAGGAG | 0.979 ± 0.024
148 | TATAATTTAC | 1.06 ± 0.017
149 | AGCTGAAG | 0.967 ± 0.013
150 | AGGGGGCCGC | 0.976 ± 0.087
151 | ACGTTAAGAT | 1.29 ± 0.26
152 | TAGCAATGAA | 1.53 ± 0.057
153 | AAAAGTGGCA | 1.07 ± 0.065
154 | TAAGTGAGGG | 0.981 ± 0.018
155 | TTATGTTTGG | 1.02 ± 0.033
156 | TAAATCGGCA | 1.004 ± 0.0021
157 | TACGCGGGGT | 1.29 ± 0.45
